Data from the domain aggregation screens of Martell et al. (2025).

Assay: soluble fraction after stress (log2 fold change); higher = more stays soluble; pooled small domains, quantitative proteomics
Details: stress: 75 degC
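Further: 20 min heating vs room temperature control held 20 min.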

Row | Sequence | soluble fraction (log2)
1 | HMRSASFDIMSQKQSDATLGYERVYDTETNEVYKAYNGFTDDYDGERYKSISDNMYTKGISGYIEK | 0.39
2 | HMRSDSEIKEDVLDELMWQPNIDETQIGVIVEKGVVTLTGFVDAYAKKTAALDAVKNVKGVKAVANDIEV | 0.131
3 | HMRSFGRLRRRDSGRWEAAYVGPDARLYRAPATFEAKDDAIAWLSAERRMIELDTWIKPHDRASR | -1.78
4 | HMRSGFAFSEEEIKHLDNIVSPLLIKGQSIHHISIFHKDEVMMSERTLYSYVNNGLFSARNIDMPRTVRMR | 0.476
5 | HMRSISVEMDGKEYLIPTVSENGKVLSDDDAVKQFKKTGKHLDVFDSPEDATAYARQLHEDQESFYA | 0.231
6 | HMRSKTDLVYEEIKKLILRGELSSDTPISENHLARRFEISRTPIREALKRLHIEGFVRIIPNHGVFVR | -2.15
7 | HMRSLAVGNVVSEEGKPSYLLLDSKRTMLFSENSIPSLYLEDGRRVIVNYTLLDEDYQGYDFRIHVNDIDT | -0.00205
8 | HMRSNADALIGRTARVSQTIVENGFGRVALDGDDWKAQAADGSRIEEGQNVIVKDRDSIILTVEKE | 0.243
9 | HMRSNIYTEEKLWTVLQDFFQENRYLTISLMRMKFGLSRHMAQKWIDHFIAKGLLVKDGTPRSPIYFLND | -2.46
10 | HMRSNQKVSQIAISQVLPGMVTAKNVYSRNDQLILNRETTLDSTKIAKIMFYAIESIYVYEPE | -2.21
11 | HMRSPVDALSNRELQVLQMVGRGLSSRQVAEALHLSVKTVEAHRQRIKGKLGLRTGAQLVQFAANWVTG | -1.75
12 | HMRSREGVRWIIRERIMEELQERHHMDDGELLEMIDRSIGEMGQEIFLPLKERIWLRGSLFDSFR | -3.07
13 | HMRSWRDQRVDDLLAAVSELGMTMSRAAAGDLLDQRVEYVANQMRVTPATARKYLTEETLAGMAREIVFG | -1.02
14 | HMRTAFPQLTERELEILDLIAAGRNNAQIASALYLAPKTVRNNVSNILAKLQATDRAEAIIRARDAGLGG | -0.201
15 | HMRTAKEVFYKELKGYMQNGDELSVKKIYSLFPEINPKTVSWRLHELVQHGKIHRTGHGYYALTQ | -1.37
16 | HMRTDTIINSGGLKINPEEVENEILKSLGDNNFFIDKIKNDKFGEEIILIALKKIKINLLIESLNLI | 0.0576
17 | HMRTFFEIEQLKAYVGEEIQVKFEADSHKQTVLGKLISISEDFIEIENSKKGNLKISLDNYLTSKLIY | -2.23
18 | HMRTGSSVLVGLVAPVRLGATGAPKVFADGALWEARSAVPLNDGQLVEITGTDGLTVLVKPSA | -0.122
19 | HMRTIVSELNDIKGISDASAKKLLIRYGSFEAVREAVMKHEEEFELDMGKRITGALTRYFYEE | -1.78

Row | Sequence | soluble fraction (log2)
20 | HMRTKLEEAVEWLQEQLNDGPVLSKELESEAKAADILPGTLRRAGEALGVVKQKQGGRGGWTWSLPR | -0.017
21 | HMRTLGADLRALRKARGLTLAGMADNMGKSVGWMSQIERDISEPSISDLRALAKLLDVSVSSLFR | -2.54
22 | HMRTQEELVAEVREQMEAMGTIATLYVELYESSEERLVGGVIFEDERHYRFVYEDGLLHYEEEK | -0.527
23 | HMRTRSDVKRAAIIQAAKDAFQEYGVNATSMDKLAEMASVSKRTVYNHFSAKEELVMHIVKE | 0.538
24 | HMRTVPEALLGRAYETAETAIVLEGLEAKRTDVFHPTIGNGTVIRLEPASGSQVSAGGVIEIFVSKGTETI | -0.346
25 | HMRVDYKTQLQELLQRQGAAAPQYRLLVEEGPAHLRRFQVGVYFQGRLLGTGWGRNKKEAEQEAARQALMP | -1.9
26 | HMRVEEVGYGEFLQMAEERDLAEVQVTDTEIIFSDKDTPPNYYKTGRMDDPFLVDRLYSAGIRDFGE | -0.136
27 | HMRVESVGDRIRRLRKSLGLTQVKLAQMLGIKAPSVVQWESDKTNLSGENLLNAAKLFGVTPDYILYGG | -0.197
28 | HMRVLEYTADGSRLDVLLSQDGVLSRSRAAELIKGGAVTVDGRAEGKPSAKPAPGALVRVEVPE | 0.0615
29 | HMRVVGRNHYDDADLAHIRSVIQLEARPLNVSRIARTLANEYPKHTYWSYLSFLQKNLRDRPDLF | -1.96
30 | HMRVVPEILERAVAVFEALGVDRLPSSTLADRLGYDSPEALADVLRPLGVRPKKYRDGKSTARGYLAADLG | -0.526
31 | HMRYEESVTLGERLLNQSLVALKADNIDDALWERFLREEAGEKSRQEILSDIGLGKRLPVVVAKRLLAPS | -0.115
32 | HMRYPLPYAFARSQQLLLEETDDGRYTLWMSSHPARSAVGEVSRKYGVQTFEVLADGPLAQRISAAYAQ | -0.983
33 | HMRYTAAEMAKKLDISRSYLYYLKEAGVVEIEKNENGKPIWTESVYNQLFEYIKKNHRTEEADNTQ | -0.805
34 | HMSAAIGEAVIATDEINVRSGPGLSHEIVSVVSRNESYPILEERGDWVQIQLNGGQKGWVVSWLIKKKS | -0.665
35 | HMSAAMTESVLDGIPGLGATRKAALLAHFGSVRKLRAATSEQVREVPGIGPRLAETILATLHEP | -0.52
36 | HMSAATGIINTDNVNIRSGPATTYDAVGRLNQGSSVEILSSRNDWYQIQANSLKGWVRNDLLNVQK | -0.00758
37 | HMSADDLVSRTQAIVAELKDLEGPLLPILHSVQEAFGHVPDEVKPVIAEALNLSRAEVHGVVSFYHDFRAH | -0.126
38 | HMSADIGAEKAKTIALNHAGVSASNAVFLHAKLDYDDGRRTYEVEFYSGSKEYDYEIDAATGEILSYDFD | -0.929
